Like-named read-outs stand apart in the source and are kept apart here.
Key:
SEC [1] = target: the molecule itself; assay: SEC
SEC [2] = target: the molecule itself; assay: SEC; remark: listed apart in the source

Row | Protein | stoichiometry N (SEC [1]) | stoichiometry N (SEC [2])
1 | CmDnm1 (native), mitochondrial fission dynamin from Cyanidioschyzon merolae (natural protein, UniProt Q84Y91 1-768, looked up) MERLIPIVNKLQDLFAETGLDSPIDLPQIMVVGAQSSGKSSVLENVVGESIFPRGTGIVTRRPIVVQLYCTARERLNQSGAPDNMFNEDGSYVLSDGAPTDPRSIPPGAENQAYAEFLHKPGVRFYNFDDVRAEIERETDRVTGKNKGISPKAINLRVYSPHVVNLTVVDLPGLTKVPVGDQPSDIERLIRAMVLSYIERPNAIILAVHPATMDLATSDALQIARQADPEGRRTLGVITKLDLMDKGTDAMEMLTGKVIPLKLGYIGVICRGPADLRAGKSIQQAREDEIRFFRSHPVYRRLLPQLGTNTLARTLSTLLMKHIRDTLPSIRQKMSQQLAEWRKELQTLGPAFEGADDLGGALLNVINRYSSEFAKSLEGNSQQTVNTQELYGGARINYIFNDIYAKELQSMNAFEGLTREDIRTAIRNATGHRSPLFVPELAFELLVKKQITHFVPPAYSCVDLVYDELVRLALNCETELLQRYENLRSEILACAQNLLRELKQPCLEMVQNLIAMETSYISVNHKDFIGGNKAMSQLVRARMEEEERRTRSAKAANSTDNAANSAPKESNANDNRILQPRRRNQDENAKKNDDARRKDDKSPNKTDASNAEKDARSDRNPRGDPTMDNFFNEADEDEEDGNERRNRGLHTLPSVPEHLKAGEVSSDRDRDDIELIQTLLASYFDVVRVNMMDMVPKAIMSFLVLRARDRMQSRLVADLYKPERMSELLNESSDVAERRATAKRMVDLLQRGMAVINEVRDVHVKEEI | 4 | –
2 | CmDnm1 GHRS431-434AAAA, self-assembly limiting stalk mutant (natural protein, Cyanidioschyzon merolae, UniProt Q84Y91 1-768, looked up) MERLIPIVNKLQDLFAETGLDSPIDLPQIMVVGAQSSGKSSVLENVVGESIFPRGTGIVTRRPIVVQLYCTARERLNQSGAPDNMFNEDGSYVLSDGAPTDPRSIPPGAENQAYAEFLHKPGVRFYNFDDVRAEIERETDRVTGKNKGISPKAINLRVYSPHVVNLTVVDLPGLTKVPVGDQPSDIERLIRAMVLSYIERPNAIILAVHPATMDLATSDALQIARQADPEGRRTLGVITKLDLMDKGTDAMEMLTGKVIPLKLGYIGVICRGPADLRAGKSIQQAREDEIRFFRSHPVYRRLLPQLGTNTLARTLSTLLMKHIRDTLPSIRQKMSQQLAEWRKELQTLGPAFEGADDLGGALLNVINRYSSEFAKSLEGNSQQTVNTQELYGGARINYIFNDIYAKELQSMNAFEGLTREDIRTAIRNATAAAAPLFVPELAFELLVKKQITHFVPPAYSCVDLVYDELVRLALNCETELLQRYENLRSEILACAQNLLRELKQPCLEMVQNLIAMETSYISVNHKDFIGGNKAMSQLVRARMEEEERRTRSAKAANSTDNAANSAPKESNANDNRILQPRRRNQDENAKKNDDARRKDDKSPNKTDASNAEKDARSDRNPRGDPTMDNFFNEADEDEEDGNERRNRGLHTLPSVPEHLKAGEVSSDRDRDDIELIQTLLASYFDVVRVNMMDMVPKAIMSFLVLRARDRMQSRLVADLYKPERMSELLNESSDVAERRATAKRMVDLLQRGMAVINEVRDVHVKEEI | – | 4

Source: paper PMC6104806 (Nature structural & molecular biology, 2018)
